In publication PMC3463815 (Scientific Reports, 2012):

Target: T1, VEGF_(34-121), 88-residue VEGF fragment displayed on S. carnosus (Homo sapiens)
T1 chain: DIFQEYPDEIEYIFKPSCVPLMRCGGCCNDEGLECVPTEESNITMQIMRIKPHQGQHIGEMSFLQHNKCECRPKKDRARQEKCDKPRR
Assay: flow cytometry on cells

B1: Avastin (antibody, V domains shown)
VH: EVQLVESGGGLVQPGGSLRLSCAASGYTFTNYGMNWVRQAPGKGLEWVGWINTYTGEPTYAADFKRRFTFSLDTSKSTAYLQMNSLRAEDTAVYYCAKYPHYYGSSHWYFDVWGQGTLVTVSS
VL: DIQMTQSPSSLSASVGDRVTITCSASQDISNYLNWYQQKPGKAPKVLIYFTSSLHSGVPSRFSGSGSGTDFTLTISSLQPEDFATYYCQQYSTVPWTFGQGTKVEIK
- binding result: binds
